# Experimental data reported in patent publication US20230038638A1, “COMPLEMENT FACTOR I-RELATED COMPOSITIONS AND METHODS” (published 2023).
# T1: human C4b (human) (UniProt P0C0L4)
# T1 sequence: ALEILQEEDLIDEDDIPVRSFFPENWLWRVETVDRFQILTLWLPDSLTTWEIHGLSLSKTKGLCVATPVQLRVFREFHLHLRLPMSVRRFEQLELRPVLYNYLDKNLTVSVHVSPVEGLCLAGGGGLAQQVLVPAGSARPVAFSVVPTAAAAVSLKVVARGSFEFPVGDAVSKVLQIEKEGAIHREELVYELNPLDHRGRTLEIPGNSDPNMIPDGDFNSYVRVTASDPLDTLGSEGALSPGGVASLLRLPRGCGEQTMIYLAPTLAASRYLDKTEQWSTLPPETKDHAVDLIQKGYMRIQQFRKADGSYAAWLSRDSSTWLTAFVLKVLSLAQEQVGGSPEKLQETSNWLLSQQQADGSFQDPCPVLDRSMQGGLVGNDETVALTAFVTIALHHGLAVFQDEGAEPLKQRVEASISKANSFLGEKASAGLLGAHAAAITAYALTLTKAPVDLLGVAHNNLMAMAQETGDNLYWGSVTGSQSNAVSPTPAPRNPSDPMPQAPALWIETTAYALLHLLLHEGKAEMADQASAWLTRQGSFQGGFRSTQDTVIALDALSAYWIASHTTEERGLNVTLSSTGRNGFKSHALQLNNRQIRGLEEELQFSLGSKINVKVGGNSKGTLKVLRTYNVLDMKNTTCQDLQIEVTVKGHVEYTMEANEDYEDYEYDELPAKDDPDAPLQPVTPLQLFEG
# T2: human C4b (human) (UniProt P0C0L5)
# T2 sequence: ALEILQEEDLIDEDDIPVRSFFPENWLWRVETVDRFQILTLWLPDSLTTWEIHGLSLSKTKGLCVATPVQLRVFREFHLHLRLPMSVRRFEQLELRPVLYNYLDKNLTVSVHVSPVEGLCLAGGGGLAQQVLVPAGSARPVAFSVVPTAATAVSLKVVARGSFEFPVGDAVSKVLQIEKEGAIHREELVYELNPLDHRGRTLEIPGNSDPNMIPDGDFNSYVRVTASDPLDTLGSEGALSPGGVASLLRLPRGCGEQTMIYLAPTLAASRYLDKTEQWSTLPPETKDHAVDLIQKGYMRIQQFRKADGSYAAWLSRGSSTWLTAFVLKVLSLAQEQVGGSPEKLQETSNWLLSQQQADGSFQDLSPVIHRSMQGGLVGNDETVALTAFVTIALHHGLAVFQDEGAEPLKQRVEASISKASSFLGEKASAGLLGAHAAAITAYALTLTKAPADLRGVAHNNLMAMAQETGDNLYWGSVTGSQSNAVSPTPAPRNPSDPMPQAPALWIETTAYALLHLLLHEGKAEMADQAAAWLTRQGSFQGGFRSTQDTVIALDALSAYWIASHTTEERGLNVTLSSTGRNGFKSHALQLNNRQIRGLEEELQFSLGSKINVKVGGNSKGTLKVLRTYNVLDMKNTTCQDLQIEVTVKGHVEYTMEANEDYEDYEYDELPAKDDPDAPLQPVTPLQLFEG
# Tests used:
# [1] = target: T1, human C4b (human)
# [2] = target: T2, human C4b (human)
# [3] = target: T1, human C4b (human); remark: listed apart in the source
# [4] = target: soluble human C3b (human) (UniProt P01024)
Molecule,C4c EC50 [1] [nM],also measured
CFI-HSA variant T407G; Y408L (enzyme),435,–
CFI-HSA variant Y408L; E457G; R462K; F464Y; N531G; GGSSGG (SEQ ID NO: 6); CR1 (ccp15-17) (from UniProt P17927) (enzyme),–,C4c EC50 (nM) [1]: 76.4 nM
CFI-HSA variant E457G; R462K; F464Y (enzyme),84.6,–
CFI-HSA variant T407G; Y408L; E457G (enzyme),300,–
CFI-HSA variant Y408L; E461Q; F464Y (enzyme),105,–
CFI-HSA variant Y408L; E457G; N531G; E530Y (enzyme),–,C4c EC50 (nM) [1]: 35.4 nM
CFI-HSA variant E457G; E461Q; R462K (enzyme),60.2,–
CFI-HSA variant Y408L; N531G; F464Y (enzyme),66.5,–
CFI-HSA variant Y408L; E457G; R462K (enzyme),142,–
CFI-HSA variant N531G; R462K (enzyme),51.2,–
CFI-HSA variant F464L (enzyme),> 1000,–
CFI-HSA variant F464I (enzyme),> 1000,–
CFI-HSA variant Y408L; N531G; E461Q; F464Y (enzyme),46.7,–
CFI-HSA variant N531G; E530Y (enzyme),–,C4c EC50 (nM) [1]: 38.2 nM
CFI-HSA variant Y408L; E457G; E461Q (enzyme),36.1,–
CFI-HSA variant Y408L; N531G; R462K (enzyme),126,–
CFI-HSA variant K504E (enzyme),–,C4b Screen Ref Fold (fold vs CFI-HSA wild type) [2]: 0.24; C4b Screen Ref Fold (fold of reference) [3]: 0.24; iC3b Screen Ref Fold (fold of reference) [4]: 0.12; iC3b Screen Ref Fold (fold vs CFI-HSA wild type) [4]: 0.88

Molecule,C4c EC50 [1] [nM],also measured
CFI-HSA variant Y408L; E530K; N531G (enzyme),111,–
CFI-HSA variant Y408L; E530R; N531G (enzyme),229,–
CFI-HSA variant Y408L; N531G; P535G; WT; GGSSGG (SEQ ID NO: 6); CR1(ccp15-17) (enzyme),62.4,–
CFI-HSA variant T407G (enzyme),329,–
CFI-HSA variant Y408L; E457G; E461Q; R462K; N531G; GGSSGG (SEQ ID NO: 6); CR1 (ccp15-17) (from UniProt P17927) (enzyme),–,C4c EC50 (nM) [1]: 91 nM
CFI-HSA variant Y408L; E457G; N531G; D425R; E530Y (enzyme),–,C4c EC50 (nM) [1]: 92.9 nM
CFI-HSA variant E457G; E530Y (enzyme),–,C4c EC50 (nM) [1]: 332 nM
CFI-HSA variant F464A (enzyme),> 1000,–
CFI-HSA variant E457G; E461Q; F464Y; N531G; GGSSGG (SEQ ID NO: 6); CR1 (ccp15-17) (from UniProt P17927) (enzyme),–,C4c EC50 (nM) [1]: 38.4 nM
CFI-HSA variant T407G; E457G (enzyme),545,–
CFI-HSA variant Y408L; N531G; E457G; F464Y (enzyme),23.2,–
CFI-HSA variant E457G; P535G; WT; GGSSGG (SEQ ID NO: 6); CR1(ccp15-17) (enzyme),57.5,–
CFI-HSA variant N531G; F464Y (enzyme),63.5,–
CFI-HSA variant E461Q; F464Y (enzyme),123,–
CFI-HSA variant K14A; D425R; Y408L-N531G (enzyme),58.1,–
WT mouse CFI; His tag (enzyme) RSPSASDLPQEELVDQKCLLQKYTHRSCNKVFCQPWQRCIEGTCICKLPYQCPRAGTPVCAMNGRSYPTYCHQKSFECLHPEIKFSHNGTCAAEGKFNVSLIYGRTKTEGLVQVKLVDQDERMFICKNSWSMAEANVACVDLGFPLGVRDIQGSFNISGNLHINDTECLHVHCRGVETSLAECAFTKRRTELSNGLAGVVCYKQDADFPTSLSFQCVNGKHIPQEKACNGVNDCGDQSDELCCKGCRGNASLCKSGVCIPDQYKCNGEVDCITGEDESRCEEDRQQNIPKGLARSAQGEAEIETEETEMLTPGMDNERKRIKSLLPKLSCGVKRNTHTRRKRVIGGKPANVGDYPWQVAIKDGQRITCGGIYIGGCWILTAAHCVRPSRAHSYQVWTALLDWLKPNSQLGIQTVKRVIVHEKYNGATFQNDIALIEMKMHTGKKECELPNSVPACVPWSPYLFQPNDRCIISGWGRGKDNQKVYSLRWGEVDLIGNCSQFYPDRYYEKEMQCAGTRDGSIDACKGDSGGPLVCEDINNVTYVWGIVSWGENCGKPEFPGVYTRVANYFDWISYHVGRSLVSQHNV,–,C4b Screen Ref Fold (fold of CFI-HSA wild type) [3]: -0.08; iC3b Screen Ref Fold (fold of CFI-HSA wild type) [4]: 0.03
